We go through seven compounds from patent US7288523B2, “Peptide binding the KLVFF-sequence of amyloid-β” (Neurochem (International) Limited, priority 1995, dated 2007).

The target of one data set is amyloid fibril formation (Homo sapiens, UniProt P05067). Conditions: literature; cited from earlier work.
In data set [1] the target is T1, Aβ-1-40 (Homo sapiens, UniProt P05067).
T1 construct: Incubation of synthetic Aβ-1-40 at 100 μM for 48 h; host or cells: synthetic peptide (chemical synthesis)
As to the kind of experiment: Aβ-1-40 polymerization alone or coincubated with peptide, electron microscopy. The format is biochemical. Here is the method: Aβ-1-40 was incubated at 100 μM in TBS for 48 h at 37° C. in a shaking water bath, either alone or together with 100 μM AcKLVFFNH2. The polymerized material was adsorbed to formvar-coated grids and negatively stained with 2% uranyl acetate in water.

Data set [2] can be described thus: Aggregation and fibril formation of Aβ-1-28 peptides (RPLC of supernatant, electron microscopy of pellet). The format is physicochemical. The conditions noted are these: 200 μM, 24 h, 37° C., TBS. Here is the method: Aβ-1-28 (FIG. 3A) and AP-1-28^AAVFA (FIG. 3B) were incubated at 200 μM in TBS for 24 h at 37° C. in a shaking water bath. After incubation, the tubes were centrifuged at 20,000 g for 20 min and the content of non-aggregated peptide in the supernatants (FIG. 3A, B) was analyzed using an established C4 RPLC system (12) whereas the aggregated peptides in the pellets were analyzed by electron microscopy after adsorption to formvar-coated grids and negative staining with 2% uranyl acetate in water.

For data set [3] the following is noted: literature; cited from earlier work.
Another data set deals with T2, ^125I-labelled Aβ-1-40 (Homo sapiens, UniProt P05067).
T2 construct: incubated in the presence of 20 μM ^125I-labelled Aβ-1-40; host or cells: synthetic peptide (chemical synthesis)
As to the kind of experiment: SPOT filter-bound peptides incubated with radioactive Aβ-1-40, autoradiography and densitometry. The format is binding. The conditions noted are these: 20 μM ^125I-labelled Aβ-1-40, 20° C., 12 h, TBS pH 7.3; semiquantitative. An excerpt: a) Ten-mers corresponding to consecutive sequences of Aβ-1-40 were synthesized on a filter matrix using the SPOT-technique (the peptides were synthesized essentially as described by Frank [R. Frank, Tetrahedron 42, 9217-9232 (1992)]. Briefly, a spacer corresponding to 2 molecules of β-alanine was coupled to cellulose membranes (Whatman lChr). The peptides were synthesized on these derivatized membranes using Fmoc protected and pentafluorophenyl-activated amino acids (AMS Biotechnology) dissolved in N-methylpyrrolidone. Coupling efficiency was monitored using bromphenol blue.). We synthesized the thirty-one possible 10-mers of the Aβ-1-40. Peptide no. 1 corresponds to amino acids 1-10, peptide no. 2 to amino acids 2-11 etc. The filter-bound peptides were incubated with radioactive Aβ-1-40. Following washing of the filter in high-salt buffer, bound radioactivity was estimated by autoradiography and densitometry. […] Radioactivity bound to the filter was visualized by autoradiography and quantitated using a densitometer.
b) Peptide no. 11 ([…]) and indicated N- and C-terminal truncated fragments were synthesized using the same technique as described above and analyzed for affinity to ^125I-labelled Aβ-1-40.
d) Each amino acid residue in KLVFF was systematically replaced with A and analyzed for affinity to ^125I-labelled Aβ-1-40. […]

Data set [4] addresses T1, Aβ-1-40. Briefly: Surface plasmon resonance spectroscopy (BIAcore 2000), Aβ-1-40 over immobilized peptide. The conditions noted are these: chip derivatized with KLVFF-βA-βA-C; three Aβ-1-40 concentrations, pH 7.4. The format is binding. Here is the method: c) Sensorgram from BIAcore 2000. Aβ-1-40, at three different concentrations in running buffer, pH 7.4. Aβ-1-40 was injected during 10 minutes over a sensor-chip derivatized with the peptide KLVFF-βA-βA-C.
c) The interaction between soluble Aβ-1-40 and immobilized KLVFF was monitored in real-time (FIG. 2D) using surface plasmon resonance spectroscopy (BIAcore, Pharmacia) (BIAcore 2000 (Pharmacia Biosensor AB, Sweden) was used for real-time studies based on surface plasmon resonance spectroscopy. The peptide was immobilized using thiol coupling. The running buffer consisted of 10 mM HEPES, 0.15 M NaCl, 3.4 mM EDTA and 0.05% surfactant P20 as described. [U. Jansson, M. Malmqvist, Adv. Biosens. 2, 291-336 (1992)]).
d) AA served as linker between the active peptide and the chip (upper trace) and cysteine alone, indicating non-specific binding, (C) as control (lower trace). Arrows indicate start and stop of injection (FIG. 2D).
(In general: Surface plasmon resonance follows binding to a sensor surface in real time, without labels.)

The target of another data set is T3, Aβ (Aβ-16-20) (Homo sapiens, UniProt P05067).
T3 construct: It is a 40 to 42 amino acids long proteolytic fragment of the Alzheimer amyloid precursor protein (APP)
Briefly: Binding to Aβ (Example 5). An excerpt:
(§1) By screening combinatorial pentapeptide libraries exclusively composed of D-amino acids (lowercase) with labelled KLVFF, several ligands with a motif containing phenylalanine (f) in the second and leucine (l) in the third position were identified (e.g. lflrr). By using a short peptide in the screening, known to bind to a region in Aβ critical for its polymerization (i.e. KLVFF), the risk of identifying D-pentapeptides that interact with nonrelevant regions in Aβ (N- or C-terminal to Aβ-16-20) was eliminated. […] Since peptides built up of D-amino acids are resistant to proteolytic degradation, these ligands may be beneficial for inhibition of amyloidogenesis in vivo.

A further data set addresses T4, Aβ (Homo sapiens, UniProt P05067).
T4 construct: It is a 40 to 42 amino acids long proteolytic fragment of the Alzheimer amyloid precursor protein (APP)
Briefly: Inhibition of amyloid fibril formation (Example 5). Format: biochemical.

For data set [5] the following is noted: WO 95/08999; cited from earlier work.
Another data set addresses T5, labelled KLVFF (Homo sapiens, UniProt P05067).
T5 construct: with labelled KLVFF
As to the kind of experiment: Screening of combinatorial D-amino acid pentapeptide libraries with labelled KLVFF. Format: binding.
Excerpt: as §1

`Nc1c(/N=N/c2ccc(-c3ccc(/N=N/c4cc(S(=O)(=O)O)c5ccccc5c4N)cc3)cc2)cc(S(=O)(=O)O)c2ccccc12` [Congo red]: at amyloid fibril formation, the “inhibition of amyloid fibril formation” value is given as “may have such properties”.
AcQKLVFFNH2: the “Aβ-1-40 amyloid fibril formation on coincubation with peptide” value with Aβ-1-40 [1] (100 μM Aβ-1-40 with equimolar peptide, 48 h, 37° C.) is listed as “this type of fibrils did not form”. In addition, in the data set with Aβ-1-40 [1] (peptide alone, electron microscopy), the “aggregates formed by the peptide itself” value is recorded as “small rod-like aggregates”.
“Aβ-1-28: a well-studied Aβ fragment that readily forms amyloid fibrils [reference compound]”: in data set [2], the “aggregation (non-aggregated peptide in supernatant)” value is listed as “aggregated” and the “fibril formation (electron microscopy)” value is “formed large fibril bundles”. The “formation of amyloid fibrils” value in [3] was “readily forms amyloid fibrils”.
“Aβ-1-28^AAVFA: mutated Aβ-1-28 where the KLVFF sequence was substituted with AAVFA”: the “aggregation (non-aggregated peptide in supernatant)” value in data set [2] is “almost completely failed to aggregate”. Moreover, the “fibril formation (electron microscopy)” value in [2] is “only formed a few dispersed fibrils”; in data set [2] (listed as alanine-substituted Aβ-1-28), “does not form fibrils”.
Turning to Lys-Leu-Val-Phe-Phe [KLVFF], the “binding of radioactive Aβ-1-40 to filter-bound peptide” value in the data set with ^125I-labelled Aβ-1-40 is given as “high Aβ binding capacity”. The “binding of soluble Aβ-1-40 to immobilized peptide (sensorgram)” value in the data set with Aβ-1-40 [4] is “not saturable”. For the same compound, the “binding to Aβ” value with Aβ (Aβ-16-20) is recorded as “binds stereo specifically”. For the same compound, in the data set with Aβ, the “inhibition of amyloid fibril formation” value is listed as “inhibit amyloid fibril formation”. In data set [5], the “amnestic or memory enhancing effect” value was “neither significantly amnestic nor memory enhancing”.
Consider lflrr, for which, at labelled KLVFF, the “identified as ligand of labelled KLVFF” value is given as “identified”.
As for “p3: fragment of Aβ termed p3 and corresponding to Aβ-17-40 or Aβ-17-42 (LVFFAEDVGSNKGAIIGLMVGGVV; P3(40); UniProt P05067 688-711, looked up)”, the “formation of amyloid fibrils” value in data set [3] was “not capable of forming amyloid in vitro or in vivo”.
